Laboratory results reported in article PMC9482650, “Quantitative fragmentomics allow affinity mapping of interactomes” (Nature Communications, 2022).

What was measured:
Assay in all cases: holdup assay
Parameters in all cases: key: below the threshold = too weak to quantify, mostly under pKd 3.1 to 4
[1] = target: GRIP2_4, Q9C0E4
[2] = target: GRID2IP_2, A4D2P6
[3] = target: T1, DLG3_1, Q92796
T1 sequence (Q92796 125-227, limits assumed, looked up): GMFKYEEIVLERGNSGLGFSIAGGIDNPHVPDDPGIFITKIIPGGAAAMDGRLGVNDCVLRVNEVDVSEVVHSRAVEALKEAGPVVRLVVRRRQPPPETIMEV

[4] = target: MAGI1_1, Q96QZ7
Sequence of MAGI1_1, Q96QZ7 (Q96QZ7 1-106): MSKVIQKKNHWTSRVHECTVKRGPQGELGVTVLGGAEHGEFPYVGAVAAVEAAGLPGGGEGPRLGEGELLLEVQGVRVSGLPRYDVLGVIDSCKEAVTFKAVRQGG

[5] = target: T2, TIAM2, Q8IVF5
T2 sequence (Q8IVF5 885-986, limits assumed, looked up): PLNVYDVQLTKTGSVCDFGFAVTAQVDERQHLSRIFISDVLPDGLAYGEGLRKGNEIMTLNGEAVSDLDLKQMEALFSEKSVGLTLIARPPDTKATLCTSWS

[6] = target: T3, SYNJ2BP, P57105
T3 sequence (P57105 8-110, limits assumed, looked up): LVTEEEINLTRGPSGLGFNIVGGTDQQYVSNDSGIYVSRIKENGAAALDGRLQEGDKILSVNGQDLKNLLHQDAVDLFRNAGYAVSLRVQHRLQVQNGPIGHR

[7] = target: IL16_3, Q14005
Sequence of IL16_3, Q14005 (Q14005 1107-1207): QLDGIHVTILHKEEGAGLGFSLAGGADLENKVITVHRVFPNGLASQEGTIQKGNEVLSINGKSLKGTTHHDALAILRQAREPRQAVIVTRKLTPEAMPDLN

[8] = target: NOS1, P29475
Sequence of NOS1, P29475 (P29475 9-101): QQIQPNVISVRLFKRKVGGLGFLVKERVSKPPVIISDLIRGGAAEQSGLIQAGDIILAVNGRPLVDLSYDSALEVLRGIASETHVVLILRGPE

[9] = target: AHNAK1, Q09666
Sequence of AHNAK1, Q09666 (Q09666 4-100): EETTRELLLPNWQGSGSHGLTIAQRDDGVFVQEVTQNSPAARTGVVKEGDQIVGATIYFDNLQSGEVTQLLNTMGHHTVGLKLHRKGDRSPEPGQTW

[10] = target: T4, NHERF3_1, Q5T2W1
T4 sequence (Q5T2W1 4-100, limits assumed, looked up): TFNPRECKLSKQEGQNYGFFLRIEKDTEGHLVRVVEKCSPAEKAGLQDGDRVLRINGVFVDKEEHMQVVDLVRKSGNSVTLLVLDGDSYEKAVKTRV

[11] = target: GRIP2_5, Q9C0E4
Sequence of GRIP2_5, Q9C0E4 (Q9C0E4 544-642): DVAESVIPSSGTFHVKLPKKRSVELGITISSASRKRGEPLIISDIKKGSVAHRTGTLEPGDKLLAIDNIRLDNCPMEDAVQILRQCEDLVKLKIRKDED

[12] = target: Inadl_8, Q8NI35
Sequence of Inadl_8, Q8NI35 (Q8NI35 1425-1530): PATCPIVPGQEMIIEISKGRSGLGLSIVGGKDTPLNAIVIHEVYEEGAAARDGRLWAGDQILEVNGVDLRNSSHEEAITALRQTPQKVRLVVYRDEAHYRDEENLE

[13] = target: T5, GRIP1_3, Q9Y3R0
T5 sequence (Q9Y3R0 247-346, limits assumed, looked up): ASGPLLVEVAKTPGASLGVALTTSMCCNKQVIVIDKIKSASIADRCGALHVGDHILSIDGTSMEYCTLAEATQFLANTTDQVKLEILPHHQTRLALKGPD

[14] = target: FRMPD2_3, Q68DX3
Sequence of FRMPD2_3, Q68DX3 (Q68DX3 1073-1166): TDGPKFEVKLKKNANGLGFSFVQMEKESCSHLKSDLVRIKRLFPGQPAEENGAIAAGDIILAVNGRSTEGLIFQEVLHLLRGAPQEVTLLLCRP

[15] = target: T6, GRIP1_5, Q9Y3R0
T6 sequence (Q9Y3R0 568-668, limits assumed, looked up): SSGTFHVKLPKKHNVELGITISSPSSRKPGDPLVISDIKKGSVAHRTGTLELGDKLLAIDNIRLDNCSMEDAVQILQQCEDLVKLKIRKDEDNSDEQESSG

[16] = target: PDLIM1, O00151
Sequence of PDLIM1, O00151 (O00151 1-87): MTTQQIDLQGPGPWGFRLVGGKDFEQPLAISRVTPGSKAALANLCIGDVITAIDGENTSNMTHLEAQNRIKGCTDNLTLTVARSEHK

[17] = target: PICK1, Q9NRD5
Sequence of PICK1, Q9NRD5 (Q9NRD5 17-115): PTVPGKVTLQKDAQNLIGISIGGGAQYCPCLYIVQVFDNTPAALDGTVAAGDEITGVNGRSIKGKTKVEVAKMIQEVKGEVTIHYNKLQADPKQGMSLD

[18] = target: T7, RHPN1, Q8TCX5
T7 sequence (Q8TCX5 508-602, limits assumed, looked up): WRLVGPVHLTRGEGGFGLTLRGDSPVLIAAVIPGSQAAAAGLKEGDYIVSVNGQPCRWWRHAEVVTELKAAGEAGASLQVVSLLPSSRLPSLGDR

[19] = target: T8, DLG3_3, Q92796
T8 sequence (Q92796 374-475, limits assumed, looked up): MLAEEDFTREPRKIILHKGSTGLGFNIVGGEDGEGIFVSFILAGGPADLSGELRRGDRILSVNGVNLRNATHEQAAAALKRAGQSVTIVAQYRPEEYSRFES

[20] = target: T9, LNX2_2, Q8N448
T9 sequence (Q8N448 334-432, limits assumed, looked up): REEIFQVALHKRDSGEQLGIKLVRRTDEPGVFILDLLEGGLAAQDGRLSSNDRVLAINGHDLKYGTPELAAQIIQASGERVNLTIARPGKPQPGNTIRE

[21] = target: T10, MPP2, Q14168
T10 sequence (Q14168 180-250, limits assumed, looked up): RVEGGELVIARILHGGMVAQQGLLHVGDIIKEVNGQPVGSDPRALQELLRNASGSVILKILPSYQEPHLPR

[22] = target: T11, APBA1_2, Q02410
T11 sequence (Q02410 742-832, limits assumed, looked up): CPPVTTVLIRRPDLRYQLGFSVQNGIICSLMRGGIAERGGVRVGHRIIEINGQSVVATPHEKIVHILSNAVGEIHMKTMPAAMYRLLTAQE

[23] = target: T12, APBA1_1, Q02410
T12 sequence (Q02410 651-752, limits assumed, looked up): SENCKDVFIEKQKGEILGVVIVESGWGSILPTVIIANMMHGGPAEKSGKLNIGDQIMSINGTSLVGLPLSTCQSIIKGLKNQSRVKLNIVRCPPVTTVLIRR

[24] = target: HTRA1, Q92743
Sequence of HTRA1, Q92743 (Q92743 360-477): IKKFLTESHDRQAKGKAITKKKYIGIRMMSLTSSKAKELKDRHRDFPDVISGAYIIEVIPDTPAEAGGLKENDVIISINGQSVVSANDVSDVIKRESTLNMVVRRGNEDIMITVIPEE

[25] = target: SNX27, Q96L92
[26] = target: DLG4_1, P78352
Sequence of DLG4_1, P78352 (P78352 62-152): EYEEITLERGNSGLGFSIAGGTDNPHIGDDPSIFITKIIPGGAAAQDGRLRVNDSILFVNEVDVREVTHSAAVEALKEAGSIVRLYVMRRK

[27] = plain residues with an end cap or a label only (N-terminal biotin on a linker: ado-ado)
[28] = modified: phospho on T at position -2 from the C-terminal residue

Sequence of GRIP2_4, Q9C0E4 (Q9C0E4 446-548): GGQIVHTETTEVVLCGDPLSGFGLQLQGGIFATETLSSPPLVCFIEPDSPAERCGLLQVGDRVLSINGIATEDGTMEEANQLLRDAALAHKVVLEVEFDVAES
Sequence of GRID2IP_2, A4D2P6 (A4D2P6 272-370): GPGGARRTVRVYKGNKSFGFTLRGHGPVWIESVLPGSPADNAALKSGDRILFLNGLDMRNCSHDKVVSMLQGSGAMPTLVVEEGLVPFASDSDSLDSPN

## RRLPGKETMA [GRIK2, Q13002]
[1]; [27]
  pKd: below the threshold
[2]; [27]
  pKd: below the threshold
[3]; [27]
  pKd: below the threshold
[4]; [27]
  pKd: below the threshold
[5]; [27]
  pKd: 3.97
[6]; [27]
  pKd: below the threshold
[7]; [27]
  pKd: below the threshold
[8]; [27]
  pKd: below the threshold
[9]; [27]
  pKd: below the threshold
[10]; [27]
  pKd: below the threshold
[11]; [27]
  pKd: below the threshold
[12]; [27]
  pKd: below the threshold
[13]; [27]
  pKd: below the threshold
[14]; [27]
  pKd: below the threshold
[15]; [27]
  pKd: below the threshold
[16]; [27]
  pKd: below the threshold
[17]; [27]
  pKd: below the threshold
[18]; [27]
  pKd: below the threshold
[19]; [27]
  pKd: below the threshold
[20]; [27]
  pKd: below the threshold
[21]; [27]
  pKd: below the threshold
[22]; [27]
  pKd: below the threshold
[23]; [27]
  pKd: below the threshold
[24]; [27]
  pKd: below the threshold
[25]; [27]
  pKd: below the threshold
[26]; [27]
  pKd: below the threshold

## SKPTRRETEV [HPV35-E6_-2P, P27228]
[1]; [28]
  pKd: below the threshold
[2]; [28]
  pKd: below the threshold
[3]; [28]
  pKd: below the threshold
[4]; [28]
  pKd: below the threshold
[5]; [28]
  pKd: below the threshold
[6]; [28]
  pKd: below the threshold
[7]; [28]
  pKd: below the threshold
[8]; [28]
  pKd: below the threshold
[9]; [28]
  pKd: below the threshold
[10]; [28]
  pKd: below the threshold
[11]; [28]
  pKd: below the threshold
[12]; [28]
  pKd: below the threshold
[13]; [28]
  pKd: below the threshold
[14]; [28]
  pKd: below the threshold
[15]; [28]
  pKd: below the threshold
[16]; [28]
  pKd: below the threshold
[17]; [28]
  pKd: below the threshold
[18]; [28]
  pKd: below the threshold
[19]; [28]
  pKd: below the threshold
[20]; [28]
  pKd: below the threshold
[21]; [28]
  pKd: below the threshold
[22]; [28]
  pKd: below the threshold
[23]; [28]
  pKd: below the threshold
[24]; [28]
  pKd: below the threshold
[25]; [28]
  pKd: 3.59
[26]; [28]
  pKd: below the threshold

## RRRESYSTTV [EVI5, O60447]
[1]; [27]
  pKd: below the threshold
[2]; [27]
  pKd: 4.34
[3]; [27]
  pKd: 5.06
[4]; [27]
  pKd: below the threshold
[5]; [27]
  pKd: below the threshold
[6]; [27]
  pKd: 4.89
[7]; [27]
  pKd: below the threshold
[8]; [27]
  pKd: below the threshold
[9]; [27]
  pKd: below the threshold
[10]; [27]
  pKd: 4.31
[11]; [27]
  pKd: below the threshold
[12]; [27]
  pKd: 4.06
[13]; [27]
  pKd: below the threshold
[14]; [27]
  pKd: below the threshold
[15]; [27]
  pKd: below the threshold
[16]; [27]
  pKd: below the threshold
[17]; [27]
  pKd: 4.05
[18]; [27]
  pKd: below the threshold
[19]; [27]
  pKd: 4.28
[20]; [27]
  pKd: 5.2
[21]; [27]
  pKd: below the threshold
[22]; [27]
  pKd: 3.74
[23]; [27]
  pKd: below the threshold
[24]; [27]
  pKd: 4.45
[25]; [27]
  pKd: 4.79
[26]; [27]
  pKd: 5.79

## YNNCLEILRV [DCAF7, P61962]
[1]; [27]
  pKd: below the threshold
[2]; [27]
  pKd: below the threshold
[3]; [27]
  pKd: below the threshold
[4]; [27]
  pKd: below the threshold
[5]; [27]
  pKd: 4.04
[6]; [27]
  pKd: below the threshold
[7]; [27]
  pKd: below the threshold
[8]; [27]
  pKd: below the threshold
[9]; [27]
  pKd: below the threshold
[10]; [27]
  pKd: below the threshold
[11]; [27]
  pKd: below the threshold
[12]; [27]
  pKd: below the threshold
[13]; [27]
  pKd: below the threshold
[14]; [27]
  pKd: below the threshold
[15]; [27]
  pKd: below the threshold
[16]; [27]
  pKd: below the threshold
[17]; [27]
  pKd: below the threshold
[18]; [27]
  pKd: below the threshold
[19]; [27]
  pKd: below the threshold
[20]; [27]
  pKd: 4.91
[21]; [27]
  pKd: below the threshold
[22]; [27]
  pKd: below the threshold
[23]; [27]
  pKd: below the threshold
[24]; [27]
  pKd: 5.22
[25]; [27]
  pKd: below the threshold
[26]; [27]
  pKd: below the threshold
